Laboratory results reported in patent US20020127227A1 (GlaxoSmithKline, published 2002).

Molecular target: T1, recombinant human RHAMM (receptor for hyaluronic acid mediated motility), GST tag removed (human, UniProt O75330-3 1-725, limits assumed)
T1 construct: Any residues left by the linker after thrombin cleavage are not described; The BIAcore text says only 'RHAMM' and 'soluble monomeric RHAMM'; also called soluble monomeric RHAMM
T1 sequence (looked up): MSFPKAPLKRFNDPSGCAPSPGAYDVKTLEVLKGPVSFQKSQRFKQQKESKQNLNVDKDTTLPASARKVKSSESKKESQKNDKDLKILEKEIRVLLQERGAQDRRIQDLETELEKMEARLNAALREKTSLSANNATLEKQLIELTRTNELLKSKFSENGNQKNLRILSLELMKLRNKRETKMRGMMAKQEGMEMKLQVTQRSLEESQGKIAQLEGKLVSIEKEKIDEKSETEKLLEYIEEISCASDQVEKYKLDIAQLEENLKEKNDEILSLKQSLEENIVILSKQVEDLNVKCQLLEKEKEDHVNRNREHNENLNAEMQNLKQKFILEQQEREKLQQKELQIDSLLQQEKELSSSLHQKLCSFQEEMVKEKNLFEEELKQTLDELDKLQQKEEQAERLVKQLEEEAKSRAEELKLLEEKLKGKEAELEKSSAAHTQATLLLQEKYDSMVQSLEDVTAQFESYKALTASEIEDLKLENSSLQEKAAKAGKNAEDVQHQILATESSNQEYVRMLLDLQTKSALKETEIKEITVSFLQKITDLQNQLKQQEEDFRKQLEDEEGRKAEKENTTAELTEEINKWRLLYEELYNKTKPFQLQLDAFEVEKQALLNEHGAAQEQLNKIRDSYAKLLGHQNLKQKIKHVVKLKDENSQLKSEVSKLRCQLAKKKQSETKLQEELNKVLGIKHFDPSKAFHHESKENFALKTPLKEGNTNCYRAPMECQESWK
Test: BIAcore SPR, mAb captured on rabbit anti-mouse IgG Fc, RHAMM injected
Protocol: The affinity of the purified mAbs was measured in the BIAcore. Using a flow rate of 10 ul/min, the mAb (diluted in HBS buffer) was injected over a rabbit anti-mouse IgG Fc surface, followed by buffer flow and the RU recorded. RHAMM diluted in HBS buffer was then injected for 180s followed by buffer flow for 150s and regeneration of the sensor chip surface with an injection of 0.1 M phosphoric acid. BIAcore software was used for association and dissociation-phase analysis. The murine monoclonal antibodies bound to soluble monomeric RHAMM. The on-rates (kₐₛₛ) and off-rates (kdiss) were calculated.

Kd: 0.47 nM
B1: murine monoclonal antibody 16E10 (antibody, V domains shown)
VH: QVQLKESGPGLVAPSQSLSITCTVSGFSLTGYGVNWVRQPPGKGLEWLGMIWVDGGTDYNSALKSRLSISKDNSKSQVFLKMNSLQTDDTARYYCARGGSSLLGFAYWGQGTLVTVSA
VL: DIQMTQTTSSLSASLGDRVTISCRASQDISNYLNWYQQKPDGTVKLLIYYTSRLHSGVPSRFSGSGSGTDYSLTISNLEQEDIATYFCQQGNTLPRTFGGGTKLEIKR
modifications: N-terminus of the heavy chain blocked with pyroglutamic acid
notes: The rest is mouse IgG with a kappa light chain (amplified with mouse IgG CH1 and C kappa primers); also called mAb 16E10; ATCC 16E10
